Measured values: patent publication CN109942708A (SHANGHAI KEQI PHARMACEUTICAL TECH CO LTD, dated 2019)
“And” between values parts separate entries of the source, which are not always exact repeats. Equal values may be shown once.

T1: CD138 (UniProt P18827 23-254, limits assumed)
T1 construct: Coated antigen in the specificity ELISA; also called CD138抗原
T1 sequence (looked up): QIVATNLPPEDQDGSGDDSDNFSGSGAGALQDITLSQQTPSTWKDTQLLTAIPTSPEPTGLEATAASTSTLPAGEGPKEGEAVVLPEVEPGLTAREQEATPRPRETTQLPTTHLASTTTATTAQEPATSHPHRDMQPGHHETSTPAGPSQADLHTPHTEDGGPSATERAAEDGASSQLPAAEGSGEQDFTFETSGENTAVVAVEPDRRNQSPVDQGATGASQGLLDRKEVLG

T2: CD38 (UniProt P28907 43-300)
T2 construct: Coated antigen in the specificity ELISA; also called CD38抗原
T2 sequence (looked up): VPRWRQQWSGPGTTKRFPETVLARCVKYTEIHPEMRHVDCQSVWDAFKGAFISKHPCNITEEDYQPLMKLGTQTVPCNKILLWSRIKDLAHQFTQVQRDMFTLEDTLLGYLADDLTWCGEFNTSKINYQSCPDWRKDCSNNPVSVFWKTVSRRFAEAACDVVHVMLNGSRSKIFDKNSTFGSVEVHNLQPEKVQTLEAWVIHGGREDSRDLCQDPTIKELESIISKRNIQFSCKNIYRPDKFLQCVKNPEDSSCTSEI

T3: BCMA抗原 (UniProt Q02223 1-54)
T3 construct: Recombinant BCMA antigen as immobilised on the Biacore chip and coated in the specificity ELISA; also called B细胞成熟抗原; B cell maturation antigen
T3 sequence (looked up): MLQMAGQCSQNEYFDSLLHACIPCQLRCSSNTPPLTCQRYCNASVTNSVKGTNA


Key:
BCMA-FC抗原 [1] = target: BCMA-FC抗原 (UniProt Q02223); experiment: phage ELISA on coated BCMA-FC, helper phage control
BCMA-his抗原 [2] = target: BCMA-his抗原 (UniProt Q02223); experiment: phage ELISA on coated BCMA-his, helper phage control
BCMA-his抗原 [3] = target: BCMA-his抗原 (UniProt Q02223); experiment: as above; remark: listed apart in the source
CD138 = target: T1, CD138; experiment: ELISA on antigen coated at 10ug/mL
CD38 = target: T2, CD38; experiment: ELISA on antigen coated at 10ug/mL
BCMA抗原 = target: T3, BCMA抗原; experiment: SPR, Biacore T2000, BCMA amine-coupled to the chip, VHH injected, 25°C
BCMA-FC抗原 [4] = target: BCMA-FC抗原 (UniProt Q02223); experiment: phage ELISA on coated BCMA-FC
BCMA-his抗原 [5] = target: BCMA-his抗原 (UniProt Q02223); experiment: phage ELISA on coated BCMA-his

Molecule	OD450 (BCMA-FC抗原 [1])	OD450 (BCMA-his抗原 [2])	OD450 (BCMA-his抗原 [3])	binding result (CD138)	binding result (CD38)	Kd (BCMA抗原) [nM]	OD450 (BCMA-FC抗原 [4]) [OD450]	OD450 (BCMA-his抗原 [5]) [OD450]
M13K07	0.518 OD450 and 0.332 OD450	0.85 OD450 and 0.631 OD450	2.36 OD450 and 2.38 OD450					
BCMA单域抗体B1 (VHH, FITC-labelled for flow cytometry; also called B1抗体) VHH: QVQLVESGGGLVQPGGSLRLSCTASGSILSIYAMGWYRQAPGKQRELVAAINISSNTFYRDSVKGRFTISRDNAENTVYLQMNSLKPEDTAVYYCNVAPWGDYDVKTDFGGWGQGTQVTVSS				no binding	no binding	2.14	2.96	2.33
BCMA单域抗体B65 (VHH, FITC-labelled for flow cytometry; also called B65抗体) VHH: QLQLVESGGGLVQPGGSLRLSCAASGSISGIYAMGWYRQAPGKQRRLVAAITSGGDTFHADSVKGRFTISRDNAKNTMYLQMNSLKPEDTAVYYCNVAPWGDYDVRADFGSWGQGTQVTVSS				no binding	no binding	0.32		2.76
